Measured values from article doi:10.1101/2024.12.07.627365 (bioRxiv, 2024).

Target: T1, Extended FH2 FMN1 (UniProt Q05860 961-1466)
T1 sequence (looked up): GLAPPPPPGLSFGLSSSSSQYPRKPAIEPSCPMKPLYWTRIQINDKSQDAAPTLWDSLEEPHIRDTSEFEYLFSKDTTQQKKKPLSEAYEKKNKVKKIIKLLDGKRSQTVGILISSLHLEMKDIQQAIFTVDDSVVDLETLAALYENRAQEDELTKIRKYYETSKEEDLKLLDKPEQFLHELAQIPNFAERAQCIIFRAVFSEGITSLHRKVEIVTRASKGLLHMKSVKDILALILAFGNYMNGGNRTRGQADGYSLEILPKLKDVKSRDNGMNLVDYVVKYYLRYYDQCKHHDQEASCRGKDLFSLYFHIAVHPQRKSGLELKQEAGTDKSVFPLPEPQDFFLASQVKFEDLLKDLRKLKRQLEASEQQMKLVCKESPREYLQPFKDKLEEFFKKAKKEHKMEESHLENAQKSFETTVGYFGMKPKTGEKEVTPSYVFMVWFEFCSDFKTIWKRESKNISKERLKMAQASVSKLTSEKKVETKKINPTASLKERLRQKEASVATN
Test: SPR

B1: N-terminal WW1-WW2 FNBP4 (domain or fragment, UniProt Q8N3X1 214-629, looked up)
chain: GIEMGDWQEVWDENTGCYYYWNTQTNEVTWELPQYLATQVQGLQHYQPSSVPGAETSFVVNTDIYSKEKTISVSSSKSGPVIAKREVKKEVNEGIQALSNSEEEKKGVAASLLAPLLPEGIKEEEERWRRKVICKEEPVSEVKETSTTVEEATTIVKPQEIMLDNIEDPSQEDLCSVVQSGESEEEEEQDTLELELVLERKKAELRALEEGDGSVSGSSPRSDISQPASQDGMRRLMSKRGKWKMFVRATSPESTSRSSSKTGRDTPENGETAIGAENSEKIDENSDKEMEVEESPEKIKVQTTPKVEEEQDLKFQIGELANTLTSKFEFLGINRQSISNFHVLLLQTETRIADWREGALNGNYLKRKLQDAAEQLKQYEINATPKGWSCHWDRDHRRYFYVNEQSGESQWEFPDG
- Kd: 36.5 nM
- koff: 0.000803 s⁻¹
- kon: 22500 M⁻¹ s⁻¹
